Test [1] has as its system secreted IL-8 protein from HeLa cells. The test is described as follows: IL-8 Elisa assay in HeLa cells. The note with it: after transfection. Format: cell-based. How it is done:
HeLa cells are transfected with DNA samples selected from the group of sequence verified and confirmed hits at 100 ng per well in 96 well plates (Costar) using the protocol described above. DNA samples designated as co-activators are co-transfected at 25 ng per well. Empty vector pCMV-Sport6 is used as a negative control. 72 hours post-transfection IL-8 content is measured in the cell growth media in prediluted aliquots corresponding to 1 to 5 μl of conditioned growth media using an IL-8 Elisa kit (Sigma) following the provided protocol. As a positive control, growth media is collected from the cells transfected with empty vector and treated with IL-1β and TNFα (R&D Systems) at 5 ng/ml and 50 ng/ml respectively for 16 hours prior to collection of the growth media for the IL-8 assay.

The subject of test [2] is CRE-like element of IL-8 promoter (pCREL-Luc). The test is described as follows: pCREL-Luc reporter (concatamerized CRE-like site) assay. The note with it: minimal promoter carrying concatamerized CRE-like site; data not shown. Type of test: cell-based. From the text:
The pIL-8Luc reporter was constructed by insertion of the −1491 to +43 region of the human IL-8 gene into pGL3Basic vector (Promega, Inc). PCR was used to generate a wild type minimal IL-8 promoter as well as point mutants. Mutations in AP-1, C/EBP, NF-κB were as described by Wu et al. (Wu et al. J. Biol. Chem., 272:2396-2403 (1997)). The sequence of a putative CRE-like site TGACATAA was mutated to TCGATCAA. Promoter constructs carrying 6 concatamerised copies of CRE-like response element (pCREL-Luc) or 5 copies of CRE-like element TGACACAA found in human PEPCK and CAPL promoters (pCREL2-Luc) were prepared by ligating PCR amplified sequences into pTAL-Luc (BD Biosciences). All techniques were performed using conventional methods.
In order to determine if the “CRE-like element” was directly responsive to CREAP1 or MAP3K11, the ability of both genes to activate a minimal promoter carrying concatamerized CRE-like site (pCREL-Luc) was examined. In addition, we studied the effect of PMA known inducer of AP-1.

The test system of test [3] is Drosophila CRE (CRE-hsp-Luc reporter). Briefly: CRE-hsp-Luc reporter assay in Drosophila S2 cells. The note with it: 48 hours post-transfection. Format: cell-based, Drosophila melanogaster. An excerpt: The amplified product was inserted into the Drosophila P-element transformation vector, pUAST (Brand and Perrimon, Development 118:401-415 (1993)). The final construct pUAS-dCREAP was used for transfection experiments in Drosophila melanogaster Schneider cells (S2). A firefly luciferase reporter was created which contained 4 copies of the drosophila CRE enhancer element (SEQ ID 39) (Eresh, S. et. Al. EMBO J. 16:2014-2022 (1997)) followed by hsp70 minimal promoter.
The S2 cells were transfected in 6 well plates (Costar) by the CaPO4 method (Bunch, T. and Goldstein, L. Nucleic Acids Res. 17:9761-9782 (1989)). A total of 25 ug of DNA was transfected into a 6-well dish containing 4 mls of cells (˜1×10^6 cells/ml). The transfection mix was removed after 18 hr and the luciferase assays were performed 48 hrs later. The UAS-transgenes were activated by co-transfection with the Actin promoter-Gal4 plasmid provided by Dr. Norbert Perrimon. The transfection efficiency was normalized co-transfection with hsp^mln Renilla luciferase driven by minimal heat shock promoter (made according to conventional methods). Luciferase activity was measured using the Dual-luciferase assay kit (Promega). […] Data were calculated as fold induction compared to the reporter gene's activity measured in the cells designated as negative control.
(In general: Reporter assays use an easily measured gene product as a stand-in for the process of interest.)

Test [4] has as its system human IL-8 promoter. Briefly: pGL2-IL-8p-Luc reporter inducibility in HEK 293 cells. Format: cell-based. The note with it: expression construct co-transfected into HEK 293 cells, 48 hours post transfection. Here is the method: A luciferase reporter controlled by a 1.5 kB IL-8 promoter containing fragment of human IL-8 promoter was tested for inducibility by known regulators of cytokine-mediated gene expression. pNF-κB-Luc (BD Biosciences) and pGL2-IL-8p-Luc reporters were co-transfected into HEK 293 cells with expression constructs encoding known activators of the NF-κB pathway, truncated MEKK (AA 360-672) (Stratagene) and a full length TRAF6 cDNA made according to conventional methods using a proprietary clone collection. Cells co-transfected with empty pCMV-Sport6 vector were either left untreated or treated with TNFα (50 ng/ml, for 16 hours). Luciferase activity was measured 48 hours post transfection. The pNF-κB-Luc reporter was used as a positive control.

Test [5] concerns the target T1, ATF2-GAL4 fusion molecule (Homo sapiens, UniProt P15336).
T1 construct: host or cells: HLR cell line (5x GAL4 element-luciferase reporter)
The test is described as follows: In vivo kinase assay, ATF2-GAL4 fusion in HLR cells. Format: cell-based. The note with it: 40 hours after transfection. How it is done:
For in vivo kinase assay, activation domains of CREB or ATF2 transcription factors fused with the yeast GAL4 DNA binding domain (1-147 Amino Acids) constructs are used (Stratagene, PathDetect In Vivo Signal Transduction Pathway trans-reporting Systems). The HLR cell line that contains a 5× GAL4 DNA binding element and TATA box driving luciferase reporter is used per manufacturer's protocol (Stratagene). 10^4 HLR cells are split into each well of 96 well tissue culture plates. After 16 hours, cells are transfected with 100 ng of Creb-GAL4 or ATF2-GAL4 fusion constructs, 30 ng of Renilla luciferase control plasmid together with 100 ng of pCMVSPORT6, pCMVSPORT-CREAP1, pFC-PKA or pFC-MEKK (Stratagene) activator plasmids respectively. Transfection is done with Fugene6 reagent (Roche Molecular Biochemicals, Basel, Switzerland) according to the manufacturers manual. Forty hours after transfection, a Dual-Glo Luciferase assay (Promega) is conducted using the manufacturer's protocol.
As CREAP1 strongly activates CRE promoter transcription, we next investigated whether CREAP1 works through the CREB pathway. […]

The values below come from patent US20070036810A1, “Cyclic amp response element activator proteins and uses related thereto” (priority 2003, published 2007).

T1 sequence (P15336 with tags, fused parts or gaps limits assumed): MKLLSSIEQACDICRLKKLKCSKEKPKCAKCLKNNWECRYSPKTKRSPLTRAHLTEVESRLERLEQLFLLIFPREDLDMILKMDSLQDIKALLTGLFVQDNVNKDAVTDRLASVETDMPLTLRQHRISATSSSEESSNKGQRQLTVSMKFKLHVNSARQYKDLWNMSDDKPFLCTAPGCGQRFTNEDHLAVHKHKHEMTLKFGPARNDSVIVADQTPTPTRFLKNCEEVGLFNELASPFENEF

B1: MAP3K11: Mitogen-Activated Protein Kinase Kinase Kinase 11 expression construct, AP-1 activator (protein, UniProt Q16584 1-847, looked up)
Mitogen-activated protein …: MEPLKSLFLKSPLGSWNGSGSGGGGGGGGGRPEGSPKAAGYANPVWTALFDYEPSGQDELALRKGDRVEVLSRDAAISGDEGWWAGQVGGQVGIFPSNYVSRGGGPPPCEVASFQELRLEEVIGIGGFGKVYRGSWRGELVAVKAARQDPDEDISVTAESVRQEARLFAMLAHPNIIALKAVCLEEPNLCLVMEYAAGGPLSRALAGRRVPPHVLVNWAVQIARGMHYLHCEALVPVIHRDLKSNNILLLQPIESDDMEHKTLKITDFGLAREWHKTTQMSAAGTYAWMAPEVIKASTFSKGSDVWSFGVLLWELLTGEVPYRGIDCLAVAYGVAVNKLTLPIPSTCPEPFAQLMADCWAQDPHRRPDFASILQQLEALEAQVLREMPRDSFHSMQEGWKREIQGLFDELRAKEKELLSREEELTRAAREQRSQAEQLRRREHLLAQWELEVFERELTLLLQQVDRERPHVRRRRGTFKRSKLRARDGGERISMPLDFKHRITVQASPGLDRRRNVFEVGPGDSPTFPRFRAIQLEPAEPGQAWGRQSPRRLEDSSNGERRACWAWGPSSPKPGEAQNGRRRSRMDEATWYLDSDDSSPLGSPSTPPALNGNPPRPSLEPEEPKRPVPAERGSSSGTPKLIQRALLRGTALLASLGLGRDLQPPGGPGRERGESPTTPPTPTPAPCPTEPPPSPLICFSLKTPDSPPTPAPLLLDLGIPVGQRSAKSPRREEEPRGGTVSPPPGTSRSAPGTPGTPRSPPLGLISRPRPSPLRSRIDPWSFVSAGPRPSPLPSPQPAPRRAPWTLFPDSDPFWDSPPANPFQGGPQDCRAQTKDMGAQAPWVPEAGP
Consider B1, for which, in test [1], the “accumulation of secreted IL-8 protein” value is reported as “induced small increases”. For the same molecule, the “activation of pCREL-Luc” value in test [2] was “neither by MAP3K11”.

B2: dCREAP: Drosophila CREAP gene product, 797 amino acids, SEQ ID NO 27; expressed from pUAS-dCREAP (protein)
chain: MANPRKFSEKIALQKQKQAEGTAEFERIMKEVYATKRDEPPANQKILDGLVGGQEVSQSSPGAGNGTGGGGSGSGSGASGGGASPDGLGGGGGSPTAYRESRGRSVGVGPMRRPSERKQDRSPYGSSSTQQTLDNGQLNPHLLGPPTAESLWRRSSSDSALHQSALVAGFNSDVNSMGANYQQQQHQQQQQPGQPRSHSPHHGINRTMSPQAQRRKSPLLQPHQLQLQQLQQQQQQMQHQHQLHQQLQMQQLQQHQQQHQQQQQQQNTPYNNAKFTNPVFRPLQDQVNFANTGSLPDLTALQNYGPQQQQQQSQQQPSQQQQQLQQTLSPVMSPHNHRRERDQSPSPFSPAGGGGGAGPGSPYQQQQHSPTGNTQQQQQQHQQPSNSPHLSFTNLATTQAAVTTFNPLPTLGPHNATDYRQPPNPPSPRSSPGLLSSVSATDLHSSAPASPIRQQQQAHQQQQQQQQAQQQQQQFDNSYNSLNTSFHNQFEIFSLGDSNSSPEQQGFANNFVALDFDDLSGGGGGGPSGGGGSNGGGLTNGYNKPEMLDFSELSGSPEASGNNNHMRRGVSNLNNNGLSNGVVGSTHNGSTNLNGAGNNNSSSGGGTAQDPLGITTSPVPSPLGCPSSPLPIPIPMSAQSSPQQQHHHHQQQQQQHHQQQHHQQQQLSLSLHHSPHHSPMHSPHHGNSPLSSSSPVSHNACSNSNVVMNHQQQQQQHHHQQHHHQGSSQSHTPTTANIPSIIFSDYSSNADYTREIFDSLDLDLGQMDVAGLQMLSDQNPIMIADPNIEDSFRRDLN
modifications: drosophila melanogaster
Regarding B2, the Fold Activation in test [3] (CRE-hsp-Luc reporter (4 copies of Drosophila CRE)) was 136.04; in test [3] (hsp-Luc reporter without CRE) it was 0.96.

B3: MEKK: truncated MEKK (AA 360-672) expression construct (Stratagene), known activator of the NF-κB pathway (protein, UniProt Q13233 360-672, looked up, fragment)
chain: FVMLRVFQLEPSDPMLWRKTLKNFEVESLFQKYHSRRSSRIKAPSRNTIQKFVSRMSNSHTLSSSSTSTSSSENSIKDEEEQMCPICLLGMLDEESLTVCEDGCRNKLHHHCMSIWAEECRRNREPLICPLCRSKWRSHDFYSHELSSPVDSPSSLRAAQQQTVQQQPLAGSRRNQESNFNLTHYGTQQIPPAYKDLAEPWIQVFGMELVGCLFSRNWNVREMALRRLSHDVSGALLLANGESTGNSGGSSGSSPSGGATSGSSQTSISGDVVEACCSVLSMVCADPVYKVYVAALKTLRAMLVYTPCHSLAE
In the case of B3, the “increase of IL-8 promoter-reporter activity” value in test [4] was 16 times. Besides, the “stimulation of ATF2 fusion” value in test [5] was “more than 100 fold”.
